Data taken from patent publication US20230105029A1 (CHIA TAI TIANQING PHARMACEUTICAL GROUP, published 2023).
Like-named read-outs stand apart in the source and are kept apart here.

Legend:
[1] = biological target: T1, human IL4Rα expressed on 293F-IL4Rα cells (human, UniProt P24394 26-825); assay: flow cytometry on 293F-IL4Rα cells
T1 construct: whole, on cells; also called cell surface human IL4Rα

[2] = biological target: T1, human IL4Rα expressed on 293F-IL4Rα …; assay: flow cytometry on 293F-IL4Rα cells, blocked ligand biotin human IL4
Method: Then, 1×10⁵ cells per well in 96 well-plates were incubated in 100 μL of the anti-IL4Rα antibodies or controls of various concentrations (starting at 80 nM with a 4-fold serial dilution) in FACS buffer for 40 minutes on ice. The plates were washed twice with FACS buffer, and added and incubated for 40 minutes at 4° C. in dark with 100 μl/well 1.67 nM biotin-labeled human IL4 protein (Sino biological inc., Cat #11846-HNAE). The plates were washed twice with FACS buffer, and then added and incubated for 40 minutes at 4° C. in dark with 100 μl/well R-Phycoerythrin Streptavidin (1:500 dilution in FACS buffer, Jackson Immunoresearch, Cat #016-110-084). Cells were washed twice and resuspended in FACS buffer. Fluorescence was measured using a Becton Dickinson FACS Canto II-HTS equipment. Data was analyzed using Graphpad Prism software and IC₅₀ values were reported.

[3] = biological target: T2, recombinant human IL4Rα-his protein (in house made) (human, UniProt P24394 26-232, limits assumed); assay: capture ELISA, biotin-IL4Rα-his
T2 construct: also called Human IL4Ra-his
Method: (§1) Plates were washed once with wash buffer (PBS+0.05% w/v Tween-20, PBST) and then blocked with 200 μl/well blocking buffer (5% w/v non-fatty milk in PBST) for 2 hours at 37° C. Plates were washed again and incubated with 100 μl/well serially diluted anti-IL4Rα antibodies of the disclosure, the benchmark or negative control hIgG (human immunoglobulin (pH4) for intravenous injection, Hualan Biological Engineering Inc.) (5-fold dilution in 2.5% w/v non-fatty milk in PBST, starting at 66.7 nM) for 40 minutes at 37° C., and then washed 4 times again. Plates containing captured anti-IL4Rα antibodies were incubated with biotin-labeled human IL4Rα-his protein (in house made with SEQ ID NO: 57, 0.14 nM in 2.5% w/v non-fatty milk in PBST, 100 μl/well) for 40 minutes at 37° C., washed 4 times, and incubated with streptavidin conjugated HRP (1:10000 dilution in PBST, Jackson Immuno Research, Cat #016-030-084, 100 μl/well) for 40 minutes at 37° C. After a final wash, plates were incubated with 100 μl/well ELISA substrate TMB (Innoreagents, Cat #TMB-S-002). The reaction was stopped in 10 minutes at 25° C. with 50 μl/well 1M H₂SO₄, and the absorbance was read at 450 nm. Data was analyzed using Graphpad Prism software and EC₅₀ values were reported.

[4] = biological target: T2, recombinant human IL4Rα-his protein (in …); assay: capture ELISA: antibody captured on anti-IgG Fc plate, biotin human IL4Rα-his detected
Method: as §1

[5] = biological target: T1, human IL4Rα expressed on 293F-IL4Rα …; assay: flow cytometry on 293F-IL4Rα cells; remark: listed apart in the source
Method: Then, 2×10⁵ cells per well in 96 well-plates were incubated in 100 μL of the anti-IL4Rα antibodies or controls of various concentrations (starting at 80 nM with a 4-fold serial dilution) in FACS buffer for 40 minutes on ice. […] Following an incubation of 40 minutes at 4° C. in dark, cells were washed three times and resuspended in FACS buffer. Fluorescence was measured using a Becton Dickinson FACS Canto II-HTS equipment. Data was analyzed using Graphpad Prism software and EC₅₀ values were reported.

[6] = biological target: T3, cynomolgus monkey IL4Rα-his protein (cynomolgus monkey, UniProt A0A2K5V580 33-239); assay: indirect ELISA on coated cynomolgus IL4Rα-his
T3 construct: Bought protein; also called Cynomolgus IL4Rα; Cyno-IL4Rα-his; not shown: his tag
Method: (§2) The anti-IL4Rα antibodies' cross-reaction with cynomolgus IL4Rα proteins or cal-IL4Rα-his proteins were measured. Briefly, 96-well micro plates were coated with 2 μg/ml cynomolgus IL4Rα-his protein (Sino biological inc., Cat #90897—C08H) or 0.2 μg/ml cal-IL4Rα-his protein (Custom made by Sino biological inc., Cat #BAX2) in carbonate/bicarbonate buffer (pH 9.6), 100 μl/well, for 2 hours at 37° C. ELISA plates were washed once with wash buffer (PBS+0.05% w/v Tween-20, PBST) and then blocked with 200 μl/well blocking buffer (5% w/v non-fatty milk in PBST) for 2 hours at 37° C. Plates were washed again and incubated with 100 μl/well serially diluted anti-IL4Rα antibodies of the disclosure or controls (0.004-66.7 nM, 5-fold serial dilution in 2.5% w/v non-fatty milk in PBST, starting at 66.7 nM) for 40 minutes at 37° C. […] After a final wash, plates were incubated with 100 μl/well TMB (Innoreagents). The reaction was stopped 3-10 minutes later at 25° C. with 50 μl/well 1M H₂SO₄, and the absorbance was read at 450 nm. Data was analyzed using Graphpad Prism software and EC₅₀ values were reported.

[7] = biological target: T3, cynomolgus monkey IL4Rα-his protein; assay: indirect ELISA, coated cyno IL4Rα-his
Method: as §2

[8] = biological target: T2, recombinant human IL4Rα-his protein (in …); assay: competitive ELISA: coated human IL4Rα-his, blocked ligand biotin human IL4
[9] = biological target: T3, cynomolgus monkey IL4Rα-his protein; assay: indirect ELISA, coated cyno IL4Rα-his; remark: listed apart in the source
[10] = biological target: T4, marmoset monkey IL4Rα-his protein (marmoset monkey); assay: indirect ELISA, coated cal-IL4Rα-his
T4 construct: Custom made by Sino biological; no cleavage site stated; also called cal-IL4Rα-his; Cal-IL4Rα
T4 chain: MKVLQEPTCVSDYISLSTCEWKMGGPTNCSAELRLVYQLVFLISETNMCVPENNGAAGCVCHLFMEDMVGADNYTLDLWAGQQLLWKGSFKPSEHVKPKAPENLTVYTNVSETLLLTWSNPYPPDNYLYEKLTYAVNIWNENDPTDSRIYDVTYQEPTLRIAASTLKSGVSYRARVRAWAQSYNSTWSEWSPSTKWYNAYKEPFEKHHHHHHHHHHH

Binder	EC50 [1] [nM]	IC50 [2] [nM]	EC50 [3] [nM]	EC50 [4] [nM]	EC50 [5] [nM]	EC50 [6] [nM]	EC50 [7] [nM]	IC50 [8] [nM]	EC50 [9] [nM]	EC50 [10] [nM]	binding result [7]
mouse antibody C2C1A1A1 (antibody, V domains shown, Mouse hybridoma mAb; also called Mouse C2C1A1A1) VH: EVQLVESGGGLVQPGGSLKLSCAASGFTFSTYGMSWVRQTPDKRLELVATINSNGGSTSYPDSVKGRFTISRDNAKNTLYLQMSSLKSEDTAMFYCARFFRFRNAMDYWGQGTSVTVSS VL: DIQMTQSPASLSASVGETVTITCRTSENIYSYLAWYQQKQGKSPQFLVYNAKTLAEGVPSRFSGSGSGTQFSLNINSLQSEDFGSYYCQHYYGPPTWTFGGGTKLEIK	0.307	0.44	0.08	0.0759	0.159	0.329	0.33	1.89	–	–	–
chimeric antibody C2C1A1A1 (antibody, human IgG4 S228P, kappa, V domains shown, Mouse variable domains on human IgG4/kappa; also called Chimeric C2C1A1A1; chC2C1A1A1) VH: EVQLVESGGGLVQPGGSLKLSCAASGFTFSTYGMSWVRQTPDKRLELVATINSNGGSTSYPDSVKGRFTISRDNAKNTLYLQMSSLKSEDTAMFYCARFFRFRNAMDYWGQGTSVTVSS VL: DIQMTQSPASLSASVGETVTITCRTSENIYSYLAWYQQKQGKSPQFLVYNAKTLAEGVPSRFSGSGSGTQFSLNINSLQSEDFGSYYCQHYYGPPTWTFGGGTKLEIKR	0.63	–	–	–	–	–	–	3.12	0.6	0.62	–
mouse antibody B1D2F7D3B5 (antibody, V domains shown, Mouse hybridoma mAb) VH: EVKLVESGGGLVKPGGSLKLSCAASGFTFSSYAMSWVRQTPEKRLEWVASISSGDSTYYLDSVKGRFTISRDNAMNILYLQMSSLRSEDTAVYYCERSGGSAPYWGQGTLVSVSA VL: QIVLTQSPAIMSASPGEMVTISCSASSSVSYMYWYQQKPGSSPKPWIYRTSNLASGVPARFSGSGSGTSYSLTISSMEAEDAATYYCQQYHSFPLTFGAGTKLELK	–	0.787	0.06	0.0644	0.246	–	–	–	–	–	no binding (tested: 66.7 nM (highest concentration tested))
chimeric antibody B8G11F2B7G5E8 (antibody, human IgG4 S228P, kappa, V domains shown, Mouse variable domains on human IgG4/kappa; also called Chimeric B8G11F2B7G5E8; chB8G11F2B7G5E8) VH: EVQLQQSGADLVRPGASVKLSCTASGFNIKDTYMHWVKQRPEQGLEWVGRIDPTNGYTIYASKFQGKATITADTSSNTAYMQLSSLTSGDTAVYHCVSRRPWFAYWGQGTLVTVSA VL: DILMTQTPLSLPVSLGAQASISCRSSQSIVHSNGNTYLEWYLQKPGQSPKLLIYKVTNRFSGVPDRFSGSGSGTDFTLKISRVEAEDLGIYYCFQGSHVPYTFGGGTKLEIKR	0.775	–	–	–	–	–	–	1.82	1.06	1.01	–

More lines, main results first:

EC50 [1] [nM]	IC50 [2] [nM]	EC50 [3] [nM]	EC50 [4] [nM]	EC50 [5] [nM]	EC50 [6] [nM]	EC50 [7] [nM]	IC50 [8] [nM]	EC50 [9] [nM]	EC50 [10] [nM]	Binder	binding result [7]
–	0.397	0.13	0.129	0.183	108	108	–	–	–	mouse antibody C2B2F7B7 (antibody, V domains shown, Mouse hybridoma mAb) VH: EVQLVESGGGLVQPGGSLKLSCAASGFTFSTYGMSWVRQTPDKRLELVATINSNGGSTNYPDSVKGRFTISRDNAKNTLYLQMSSLKSEDTAMYYCARFFRIRNAMDYWGQGTSVTVSS VL: DIQMTQSPASLSASVGETVTITCRASENIYSYLAWYQQKQGKSPQFLVYNAKTLAEGVPSRFSGSGSGTQFSLKINSLQPEDFGSYYCQHYYGTPTWTFGGGTKLEIK	–
–	0.748	0.07	0.0703	0.221	–	–	–	–	–	mouse antibody B9D1D11F8D8 (antibody, V domains shown, Mouse hybridoma mAb) VH: EVKLVESGGGLVKPGGSLKLSCAASGFTFSSYAMSWVRQTPEKRLEWVASISSGDSTYYLDSVKGRFTISRDNARNILYLQVSSLRSEDTAMYYCERSGGSAPYWGQGTLVTVSA VL: QIVLTQSPAIMSASPGDMVTISCSASSSVNYMYWYQQKPGSSPKPWIYRTSNLASGVPARFSGSGSGTSYSLTISSMEAEDAATYYCQQYHSFPLTFGAGTKLELK	no binding (tested: 66.7 nM (highest concentration tested))
0.412	0.804	0.04	0.0393	0.251	0.291	0.29	1.64	0.5	0.87	mouse antibody B8G11F2B7G5E8 (antibody, V domains shown, Mouse hybridoma mAb; also called Mouse B8G11F2B7G5E8; mAb B8G11F2B7G5E8) VH: EVQLQQSGADLVRPGASVKLSCTASGFNIKDTYMHWVKQRPEQGLEWVGRIDPTNGYTIYASKFQGKATITADTSSNTAYMQLSSLTSGDTAVYHCVSRRPWFAYWGQGTLVTVSA VL: DILMTQTPLSLPVSLGAQASISCRSSQSIVHSNGNTYLEWYLQKPGQSPKLLIYKVTNRFSGVPDRFSGSGSGTDFTLKISRVEAEDLGIYYCFQGSHVPYTFGGGTKLEIK	–
